Data as given in paper PMC7586039.

Target: HPV16 pseudovirions (human papillomavirus type 16) (UniProt P03101)

## RTD-4 (from UniProt P82270 65-76) (peptide)
  IC50 of inhibition of HPV16 PsV infection of HeLa cells (PsV pretreated with the defensin): 101 µM

## Rhesus Theta Defensin-1 (from UniProt P82270 65-76; P82271 65-76) (peptide)
  IC50 of inhibition of HPV16 PsV infection of HeLa cells (PsV pretreated with the defensin): 14 µM

## α-defensin HD5 (peptide)
  IC50 of inhibition of HPV16 PsV infection of HeLa cells (PsV pretreated with the defensin): 26 µM
